We go through two molecules from patent US8084228B2, “Nogo-B receptor antagonists” (Yale University, priority 2006, dated 2011).

Series [1] is described as follows: Lipid transferase activity, [1-14C]IPP incorporation into polyprenyl diphosphates. The note with it: 1 μg immunoisolated protein, 20 minutes at 37° C. In kind it is biochemical. On the procedure: NgBR and NgBR lacking the cytoplasmic domain (NgBR-CD) was immunoisolated from CHO cells expressing NgBR-HA or NgBR-CD by using anti-HA matrix beads. Lipid transferase activity was measured by determining the amount of [1-^14C]IPP (isopentenyl pyrophosphate) incorporated into butanol-extractable polyprenyl diphosphates. The activity was assayed in a 50 μL reaction containing 50 mM Hepes, pH 7.5, 2 mM MgCl2, 5 mM KF, 1 mM DTT, 0.5% CHAPS, 50 μM [1-^14C]IPP (0.15 μCi per reaction) and 50 μM allylic isoprenoid diphosphate (farnesyl diphosphate, geranylgeranyl diphosphate). The reaction was started by the addition of 1 μg of protein and allowed to proceed for 20 minutes at 37° C. Mouse liver extract (1 μg) was used as a positive control for the assay. The reaction was stopped by the addition of 0.5 mL of 1-butanol saturated with water, […] followed by the addition of 0.5 mL of 2 M KCl. An aliquot of the butanol phase was removed for scintillation counting using SafeScint scintillation (American Bioanalytic, Natick, Mass.).

The test system of series [2] is Endothelial cells. As to the kind of experiment: Blocking of AP-Am-Nogo-B binding to endothelial cells. Conditions: 20 nM and 100 nM. The method, then:
To detect AP-Am-Nogo-B binding, cultures were washed with Hanks' balanced salt solution (HBSS) containing 20 mM HEPES, pH 7.5, and 1 mg/mL BSA (HBH). The plates were then incubated with AP-Am-Nogo-B in DMEM containing 20 mM Hepes, pH 7.5, and 1 mg/mL BSA for 2 hours at 4° C. The bound AP-Am-Nogo-B was detected by using the Blue Substrate kit (Vector Laboratories). The blue staining was examined by using the ODYSSEY Infrared Imaging System (Li-Cor, Lincoln, Nebr.) and confirmed by microscopy. Alternatively, the bound AP-Am-Nogo-B was extracted with Triton X-100, and AP activity was colorimetrically quantified by using p-nitrophenyl phosphate (Sigma) as substrate after heat inactivation of endogenous AP. Non-specific binding was determined by measuring binding in the presence of a 100-fold molar excess of recombinant Am-Nogo-B lacking the AP fusion protein. Specific binding was determined by subtracting the non-specific binding from total binding. For determination of apparent Kd, the binding of AP-Am-Nogo-B was measured in triplicate as described above and the Kd value was quantified by using the Scatchard plot program of GraphPad PRISM (one-site binding, linear regression) using the ratio of bound ligand to free ligand as the y axis and bound ligand (pM) as the x axis. […]

Series [3] concerns Endothelial cells. As to the kind of experiment: Am-Nogo-B-induced migration of endothelial cells, inhibition by NgBR ectodomain peptides or fusion protein. It is filed as cell-based. The note with it: endothelial cells (FIG. 35). The method, then:
Cell migration was examined in modified Boyden chambers using 10 nM each of purified recombinant AP, AP fusion of Nogo-66 (AP-Nogo-66) or Am-Nogo-B. The transwell inserts (Costar transwell inserts; Corning) were coated with a solution of 0.1% gelatin (Sigma) in PBS at 4° C. overnight and then air-dried. VEGF at 50 ng/mL (1.1 nM) or recombinant Am-Nogo-B at various concentrations dissolved in medium 199 containing 0.1% BSA was added in the bottom chamber of the Boyden apparatus. HUVEC (200,000 cells) suspended in a 100 μL aliquot of medium 199 containing 0.1% BSA was added to the upper chamber. After 5 hours incubation, cells on both sides of the membrane were fixed and stained with a Diff-Quik staining kit (Baxter Healthcare, Miami, Fla.). The average number of cells from five randomly chosen high-power (×400) fields on the lower side of the membrane was counted.
Endothelial cells were incubated with vehicle (control) of one of peptides P1-P4 (200 nM each) in the presence of Am-Nogo-B (100 nM).
Similarly, treatment of endothelial cells with mFc-ecto, but not mFc, blocked Am-Nogo-B-induced cell migration (FIG. 35).

B1: NgBR: human Nogo-B receptor, 293 amino acids, SEQ ID NO:1; immunoisolated as NgBR-HA from CHO cells (protein, listed as Homo sapiens)
chain: MTGLYELVWRVLHALLCLHRTLTSWLRVRFGTWNWIWRRCCRAASAAVLAPLGFTLRKPPAVGRNRRHHRHPRGGSCLAAAHHRMRWRADGRSLEKLPVHMGLVITEVEQEPSFSDIASLVVWCMAVGISYISVYDHQGIFKRNNSRLMDEILKQQQELLGLDCSKYSPEFANSNDKDDQVLNCHLAVKVLSPEDGKADIVRAAQDFCQLVAQKQKRPTDLDVDTLASLLSSNGCPDPDLVLKFGPVDSTLGFLPWHIRLTEIVSLPSHLNISYEDFFSALRQYAACEQRLGK
modifications: HA tag
notes: immunoisolated as NgBR-HA from CHO cells
Turning to B1, in series [1], the lipid transferase activity entry is “negative”.

B2: mFc-ecto: Fc fusion of amino acids 52-116 of NgBR (SEQ ID NO:1), HA-, heptahistidine tagged fusion protein (protein)
chain: LGFTLRKPPAVGRNRRHHRHPRGGSCLAAAHHRMRWRADGRSLEKLPVHMGLVITEVEQEPSFSD
modifications: also: Fc fusion, HA tag, heptahistidine tag
Consider B2, for which the “binding of AP-Am-Nogo-B to endothelial cells in presence of Fc protein” value in series [2] is reported as “blocked”. Moreover, the “Am-Nogo-B-induced cell migration in presence of Fc protein” value in series [3] is listed as “blocked”.
